The record followed here is paper PMC3014896.

In assay [1] the target is full-length form of human cytochrome b5 (human) (UniProt P00167).
Assay [2] has as its target HLMWb5 L51I mutant (human) (UniProt P00167).
The target of assay [3] is HLMWb5 G67A mutant (human) (UniProt P00167).
Assay [4] deals with HLMWb5 A59V mutant (human) (UniProt P00167).
In assay [5] the target is HLMWb5 G67S mutant (human) (UniProt P00167).
In assay [6] the target is HLMWb5 A59S mutant (human) (UniProt P00167).
Assay [7] has as its target full-length form of human cytochrome b5 (human) (UniProt P00167). This is another data set of the same source.
The target in assay [8] is HLMWb5 L51I mutant (human) (UniProt P00167). The source holds these as a separate data set.
Assay [9] has as its target heme-binding soluble domain of human liver microsomal cytochrome b5 with an NH2-terminal 6xHis-tag extension (HLMWb5) (human) (UniProt P00167).
Assay [10] addresses HLMWb5 G67A mutant (human) (UniProt P00167). The source holds these as a separate data set.
The target in assay [11] is HLMWb5 A59V mutant (human) (UniProt P00167). The source holds these as a separate data set.
In assay [12] the target is HLMWb5 G67S mutant (human) (UniProt P00167). The source holds these as a separate data set.
For assay [13], the target named is HLMWb5 A59S mutant (human) (UniProt P00167). This is another data set of the same source.

poly-L-lysine (peptide) displayed a half-wave potential E1/2 (vs. SHE) by cyclic voltammetry, Au electrode with β-mercaptopropionic acid, 200 μM poly-L-lysine, with Triton X-100 in assay [1] of -20.5 mV. Further, the half-wave potential E1/2 (vs. SHE) by cyclic voltammetry, poly-L-lysine 50~300 μM; no dependency on the poly-L-lysine concentration observed (value at 200 μM) in assay [2] is -30.5 mV; in [4] it was -29 mV. Besides, the half-wave potential E1/2 (vs. SHE) by cyclic voltammetry, poly-L-lysine 50~300 μM; similar concentration dependency as the wild type, with a significant negative shift (value at 200 μM) in assay [3] was -40.5 mV. The half-wave potential E1/2 (vs. SHE) by cyclic voltammetry, poly-L-lysine 50~300 μM; similar concentration dependency as the wild type (value at 200 μM) in assay [5] was -32 mV. For the same substance, the half-wave potential E1/2 (vs. SHE) by cyclic voltammetry, poly-L-lysine 50~300 μM; shifts positively and reaches a plateau at 200 μM (value at 200 μM) in [6] was -31.5 mV. The substance also registered a midpoint potential (vs. SHE) by spectroscopic redox titration with 200 μM poly-L-lysine, 0.5% Triton X-100 (-2.6 mV without poly-L-lysine) in assay [7] of 8.7 mV. Further, the midpoint potential (vs. SHE) by spectroscopic redox titration with 200 μM poly-L-lysine (-9.5 mV without poly-L-lysine) in assay [8] was found to be 10.5 mV. Moreover, in assay [9], the midpoint potential (vs. SHE) by spectroscopic redox titration, 15 μM protein with 200 μM poly-L-lysine, pH 7.0, 25°C (-3.2 mV without poly-L-lysine) is 16.5 mV. Besides, the midpoint potential (vs. SHE) by spectroscopic redox titration with 200 μM poly-L-lysine (-8.4 mV without poly-L-lysine) in [10] was -2.7 mV. In assay [11], the midpoint potential (vs. SHE) by spectroscopic redox titration with 200 μM poly-L-lysine (-7.7 mV without poly-L-lysine) was 11.7 mV. The substance further had a midpoint potential (vs. SHE) by spectroscopic redox titration with 200 μM poly-L-lysine (-7.3 mV without poly-L-lysine) in [12] of 14.2 mV. Moreover, in assay [13], the midpoint potential (vs. SHE) by spectroscopic redox titration with 200 μM poly-L-lysine (-4.9 mV without poly-L-lysine) is 9.6 mV.
